From patent publication EP4541814A1 (Cytiva BioProcess R&D AB, dated 2025)
Positions count from the first letter of the chain named.

B1: Candidate 4A-2: vh343 fusion protein (SEQ ID NO:164) (VHH)
VHH: EVQLVESGGGLVQAGGSLRLSCAASGRTLSDYTMGWFRQAPGKEREFVVAISWSGAYTKYADSVKGRFTISRDNAKNTMYLQMNSLKPEDTAVYYCAAGPTGLLSKKATPADYDYWGQGTQVTVSS
B2: Candidate 4A-3: vh118 fusion protein (SEQ ID NO:162) (VHH)
VHH: B1 VHH with E1Q, V5Q, E6Q, L11S, A23T, A24I, A40R, V49A, M79V

Target: AAV9 viral particles (adeno-associated virus 9)
Test: SPR (Biacore 8K+), fusion protein amine-coupled to CM5, AAV9 2E12 vp/ml, report point late binding

| Binder | Binding capacity AAV9 (2E12 vp/ml) (RU) |
| --- | --- |
| B1 | 12400 |
| B2 | 12400 |
